# Test results taken from US5527555A, “Brazzein sweetener” (Wisconsin Alumni Research Foundation, priority 1994, dated 1996).
# Legend:
# [1] = Thermostability assay (incubation at 98° C., sweetness then tasted); format: physicochemical
# Procedure: A thermostability assay was done (2 hours at 98° C.) at a concentration of 0.5 mg/ml Brazzein at the following different pH levels: 2 (Glycine-HCL buffer); 4 (Acetate buffer); 6 (Phosphate buffer); and 8 (Tris-HCL buffer). All of the buffers were in concentration of 50 mM. After the incubations, the samples were cooled down to room temperature and the sweetness of the samples was tasted with a comparison to the original protein solution.
# [2] = sweetness by tasting, compared with sucrose solution; format: in vivo
substance,measurement,setting,value
"Brazzein: sweet protein isolated from Pentadiplandra brazzeana Baillon, about 6,473 Daltons, amino acid sequence SEQ ID NO:4 (EDKCKKVYENYPVSKCQLANQCNYDCKLDKHARSGECFYDEKRNLQCICDYCEY)",thermostability,"[1]; 2 hours at 98° C., 0.5 mg/ml, pH 2, 4, 6 and 8 (50 mM buffers), sweetness tasted against original protein solution",excellent thermostability
same,sweetness after heat incubation,[1]; two hours of incubation at 98° C.,still tasted very sweet
same,sweetness relative to sucrose,[2]; 2% solution compared with a 2% sucrose solution,"about 2,000 times"
same,temporal sweetness response,"[2]; taste, duration of sweetness",relatively long lasting sweetness response
